Here are results for two variants from IntAct's records for PubMed 12819209.

The chains are these.
B1: Prolactin receptor (Homo sapiens), P16471 (parent)
chain: MKENVASATVFTLLLFLNTCLLNGQLPPGKPEIFKCRSPNKETFTCWWRPGTDGGLPTNYSLTYHREGETLMHECPDYITGGPNSCHFGKQYTSMWRTYIMMVNATNQMGSSFSDELYVDVTYIVQPDPPLELAVEVKQPEDRKPYLWIKWSPPTLIDLKTGWFTLLYEIRLKPEKAAEWEIHFAGQQTEFKILSLHPGQKYLVQVRCKPDHGYWSAWSPATFIQIPSDFTMNDTTVWISVAVLSAVICLIIVWAVALKGYSMVTCIFPPVPGPKIKGFDAHLLEKGKSEELLSALGCQDFPPTSDYEDLLVEYLEVDDSEDQHLMSVHSKEHPSQGMKPTYLDPDTDSGRGSCDSPSLLSEKCEEPQANPSTFYDPEVIEKPENPETTHTWDPQCISMEGKIPYFHAGGSKCSTWPLPQPSQHNPRSSYHNITDVCELAVGPAGAPATLLNEAGKDALKSSQTIKSREEGKATQQREVESFHSETDQDTPWLLPQEKTPFGSAKPLDYVEIHKVNKDGALSLLPKQRENSGKPKKPGTPENNKEYAKVSGVMDNNILVLVPDPHAKNVACFEESAKEAPPSLEQNQAEKALANFTATSSKCRLQLGGLDYLDPACFTHSFH

The variants in this experiment derive from B1. The following applies: with 1433z_human YWHAZ.
Regarding T415A, the “effect of a mutation on the interaction” value is “decreasing interaction strength”. For C413A;S414A;T415A the value was “decreasing interaction strength”.
